Tested on: Histone H3;Histone H4 (His6-TEV) (Drosophila melanogaster;Drosophila melanogaster)
Test: restriction enzyme protection
Settings: purified tetrasome, Wheat germ cell-free co-expression with NAP1 at 26 C for 6 h, TALON purification in 10 mM Tris/HCl pH 7.4, 40 mM NaCl (elution 250 mM imidazole), 6% native …

Substance 601_185bp has a binding signal (% protection from PmlI) (37 C) of 81 and a binding signal (% protection from BsiWI) (55 C) of 93.6.
